# Changes are numbered by the printed parent chain. Numbers in names are those of the source.
# B1: PeAAO1 (Pleurotus eryngii; K583E/Q584R) (protein)
# chain: ADFDYVVVGAGNAGNVVAARLTEDPDVSVLVLEAGVSDENVLGAEAPLLAPGLVPNSIFDWNYTTTAQAGYNGRSIAYPRGRMLGGSSSVHYMVMMRGSTEDFDRYAAVTGDEGWNWDNIQQFVRKNEMVVPPADNHNTSGEFIPAVHGTNGSVSISLPGFPTPLDDRVLATTQEQSEEFFFNPDMGTGHPLGISWSIASVGNGQRSSSSTAYLRPAQSRPNLSVLINAQVTKLVNSGTTNGLPAFRCVEYAEQEGAPTTTVCAKKEVVLSAGSVGTPILLQLSGIGDENDLSSVGIDTIVNNPSVGRNLSDHLLLPAAFFVNSNQTFDNIFRDSSEFNVDLDQWTNTRTGPLTALIANHLAWLRLPSNSSIFQTFPDPAAGPNSAHWETIFSNQWFHPAIPRPDTGSFMSVTNALISPVARGDIKLATSNPFDKPLINPQYLSTEFDIFTMIQAVKSNLRFLSGQAWADFVIRPFDPRLRDPTDDAAIESYIRDNANTIFHPVGTASMSPRGASWGVVDPDLKVKGVDGLRIVDGSILPFAPNAHTQGPIYLVGERGADLIKADQ
# notes: secreted glycoprotein from P. pastoris X-33 (codon-optimised gene in pPICZA); signal peptide removed; theoretical 61 kDa, about 100 kDa on SDS-PAGE, 70 kDa deglycosylated; only mutants expressed (ER, NER, AER)
# B2: PeAAO1 (Pleurotus eryngii; D361N/K583E/Q584R) (protein)
# chain: B1 chain with D334N
# notes: as for B1
# B3: PeAAO1 (Pleurotus eryngii; K583E/Q584R/V367A) (protein)
# chain: B1 chain with V340A
# notes: as for B1
# How the values were obtained:
# [1] = molecular target: T1, PeAAO1 (Pleurotus eryngii, UniProt O94219, D361N/K583E/Q584R); test: flavin absorption spectrum; FAD released on heat denaturation; format: binding; details: non-covalently bound; absorbance maxima 463 and 383 nm
# T1 construct: gene aao; secreted glycoprotein from P. pastoris X-33 (codon-optimised gene in pPICZA); signal peptide removed; theoretical 61 kDa, about 100 kDa on SDS-PAGE, 70 kDa deglycosylated; only mutants expressed (ER, NER, AER)
# [2] = molecular target: T2, PeAAO1 (Pleurotus eryngii, UniProt O94219, V367A/K583E/Q584R); test: as above; format: binding; details: non-covalently bound; absorbance maxima 463 and 383 nm
# T2 construct: gene aao; secreted glycoprotein from P. pastoris X-33 (codon-optimised gene in pPICZA); signal peptide removed; theoretical 61 kDa, about 100 kDa on SDS-PAGE, 70 kDa deglycosylated; only mutants expressed (ER, NER, AER)
# [3] = molecular target: T3, PeAAO1 (Pleurotus eryngii, UniProt O94219, K583E/Q584R); test: as above; format: binding; details: non-covalently bound; absorbance maxima 463 and 383 nm
# T3 construct: gene aao; secreted glycoprotein from P. pastoris X-33 (codon-optimised gene in pPICZA); signal peptide removed; theoretical 61 kDa, about 100 kDa on SDS-PAGE, 70 kDa deglycosylated; only mutants expressed (ER, NER, AER)
# [4] = substrate: COc1ccc(CO)cc1OC; test: purified protein; format: biochemical, Pleurotus eryngii; details: 100 mM sodium phosphate pH 6, 25 °C, O2 as co-substrate, glycosylated enzyme
Molecule,flavin absorption spectrum; FAD released on heat denaturation [1],flavin absorption spectrum; FAD released on heat denaturation [2],flavin absorption spectrum; FAD released on heat denaturation [3],Km [4] [µM],kcat [4] [s⁻¹],kcat/Km [4] [M⁻¹ s⁻¹]
Cc1cc2nc3c(=O)[nH]c(=O)nc-3n(C[C@H](O)[C@H](O)[C@H](O)COP(=O)(O)OP(=O)(O)OC[C@H]3O[C@@H](n4cnc5c(N)ncnc54)[C@H](O)[C@@H]3O)c2cc1C [FAD],calculated based on absorbance of the released FAD after heat precipitation of the apoprotein,calculated based on absorbance of the released FAD after heat precipitation of the apoprotein,calculated based on absorbance of the released FAD after heat precipitation of the apoprotein,–,–,–
B1,–,–,–,549.0 ± 12.6,54.9 ± 0.02,100000
B2,–,–,–,546.7 ± 5.8,68.2 ± 0.05,125000
B3,–,–,–,541.9 ± 6.4,58.5 ± 0.03,108000
